Laboratory results: article PMC6879610 (Nature Communications, 2019)
Positions count from the first letter of the chain named.

How the values were obtained:
Settings in all cases: both partners purified
[1] = molecular target: T1, MPER peptide PDT-081 (HIV-1, strain  (synthetic …)); test: BLI; Octet RED96; biotinylated MPER peptide PDT-081 (7.5 ug/ml) captured on streptavidin biosensors; serial dilution of Fab, 5 min association, 5 min dissociation; PBS/0.002% Tween 20/0.01% bovine serum albumin; KD = koff/kon from five sensorgrams of the dilution series
T1 construct: also called PDT081pept
T1 sequence (P05877 655-684): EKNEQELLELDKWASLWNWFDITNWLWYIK

[2] = molecular target: T1, MPER peptide PDT-081; test: as above; remark: listed apart in the source
[3] = molecular target: T1, MPER peptide PDT-081; test: as above; remark: listed apart in the source
[4] = molecular target: ovalbumin (Gallus gallus (species assumed), UniProt P01012); test: ELISA; 250 ng antigen per well coated overnight at 4 °C in PBS; serial dilutions of antibody 1 h at 37 °C; detected with anti-human IgG Fc-HRP
[5] = molecular target: T2, MPER peptide PDT-081 (HIV-1, strain  (synthetic …)); test: BLI; Octet RED96; biotinylated peptide PDT-081 (7.5 μg/ml) on streptavidin biosensors; serial dilution of Fab, 5 min association, 5 min dissociation; PBS/0.002% Tween 20/0.01% BSA; KD as koff/kon
T2 construct: also called full-length MPER
T2 sequence (P05877 655-684): as above

[6] = molecular target: T1, MPER peptide PDT-081; test: BLI; Octet RED96; biotinylated MPER peptide PDT-081 (7.5 ug/ml) captured on streptavidin biosensors; serial dilution of Fab, 5 min association, 5 min dissociation; PBS/0.002% Tween 20/0.01% bovine serum albumin; KD = koff/kon from five sensorgrams of the dilution series; remark: listed apart in the source
[7] = molecular target: T2, MPER peptide PDT-081; test: ELISA; 250 ng antigen per well coated overnight at 4 °C in PBS; serial dilutions of antibody 1 h at 37 °C; detected with anti-human IgG Fc-HRP
[8] = molecular target: T1, MPER peptide PDT-081; test: BLI; Octet RED96; biotinylated MPER peptide PDT-081 (7.5 ug/ml) captured on streptavidin biosensors; serial dilution of Fab, 5 min association, 5 min dissociation; PBS/0.002% Tween 20/0.01% bovine serum albumin; KD = koff/kon from five sensorgrams of the dilution series; remark: listed apart in the source
[9] = molecular target: T1, MPER peptide PDT-081; test: as above; remark: listed apart in the source

B1: H4K3_SFS28EPE Fab (Fab, V domains shown)
VH: KVQLVQSGAELKKPWSSVRVSCKASGGEPESYAFNWVRQAPGQRLEWLGGIVPLVSSTNYAQRFRGRVTISADRSTSTVYLEMTGLTSADTAVYFCAREGEGWFGRPLRAFEFWGQGTLVTVST
VL: EIVLTQSPGTFALSPGERATLSCRASQSVSGGALAWYQQKAGQAPRLLIYDTSGRATGVPGRFSGSGSETDFSLTISRLEPEDFAVYYCQQYGTSQSTFGQGTRLETR
- Kd [1]: 15.1 nM
- koff [1]: 0.000539 s⁻¹
- kon [1]: 35700 M⁻¹ s⁻¹

B2: H4K3_RS73PE Fab (Fab, V domains shown)
VH: B1 VH with E28S, P29F, E30S, R74P, S75E
VL: B1 VL
- Kd [2]: 12.8 nM
- koff [2]: 0.000509 s⁻¹
- kon [2]: 39700 M⁻¹ s⁻¹

B3: H4K3_5M Fab (Fab, V domains shown)
VH: B1 VH with R74P, S75E
VL: B1 VL
- Kd [3]: 23.4 nM
- koff [3]: 0.000674 s⁻¹
- kon [3]: 28800 M⁻¹ s⁻¹

B4: 4E10 (antibody, V domains shown)
VH: QVQLVQSGAEVKRPGSSVTVSCKASGGSFSTYALSWVRQAPGRGLEWMGGVIPLLTITNYAPRFQGRITITADRSTSTAYLELNSLRPEDTAVYYCAREGTTGWGWLGKPIGAFAHWGQGTLVTVSS
VL: EIVLTQSPGTQSLSPGERATLSCRASQSVGNNKLAWYQQRPGQAPRLLIYGASSRPSGVADRFSGSGSGTDFTLTISRLEPEDFAVYYCQQYGQSLSTFGQGTKVEVK
notes: also called BnAb 4E10; mature 4E10
- binding result [4]: binds

B5: 4E10 L100cF (whole antibody) (antibody, V domains shown)
VH: B4 VH with L107F
VL: B4 VL
- binding result [4]: binds

B6: PGZL1 gVmDmJ Fab (Fab, V domains shown)
VH: QVQLVQSGAEVKKPGSSVKVSCKASGGTFSSYAISWVRQAPGQGLEWMGGIIPIFGTANYAQKFQGRVTITADKSTSTAYMELSSLRSEDTAVYYCAREGEGWFGKPLRAFEFWGQGTVITVSS
VL: not shown
notes: also called inferred germline PGZL1 Fab
- Kd [5]: 64.4 nM

B7: PGZL1 gVmDmJ Fab (Fab, V domains shown)
VH: B6 VH
VL: not shown
- koff [6]: 0.000991 s⁻¹
- kon [6]: 15400 M⁻¹ s⁻¹

B8: PGZL1 gVgDmJ Fab (Fab, V domains shown)
VH: B6 VH with K106E
VL: not shown
- Kd [5]: 148 nM

B9: PGZL1 gVgDgJ IgG (antibody, V domains shown)
VH: B6 VH with K106E, E112D, F113V
VL: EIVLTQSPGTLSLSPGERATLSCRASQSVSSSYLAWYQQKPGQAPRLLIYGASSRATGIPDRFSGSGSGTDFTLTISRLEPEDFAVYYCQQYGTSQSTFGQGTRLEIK
- fold increase in EC50 [7]: 369 fold

B10: PGZL1 gVgDgJ Fab (Fab, V domains shown)
VH: B6 VH with K106E, E112D, F113V
VL: not shown
- Kd [5]: 938 nM

B11: PGZL1 gVgDmJ Fab (Fab, V domains shown)
VH: B6 VH with K106E
VL: not shown
- koff [8]: 0.00197 s⁻¹
- kon [8]: 13300 M⁻¹ s⁻¹

B12: PGZL1 gVgDgJ Fab (Fab, V domains shown)
VH: B6 VH with K106E, E112D, F113V
VL: not shown
- koff [9]: 0.00802 s⁻¹
- kon [9]: 8550 M⁻¹ s⁻¹
